{"source": "the supplement of paper PMC12455559"}
{"experiment": "purified protein yield per well (BCA); higher = higher soluble expression", "in_short": "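Expression was done in E. coli C41(DE3), using 2 mL autoinduction cultures with 100 µg/mL kanamycin incubated at 37 °C for 2 h and at 18 °C for 40 h. Protein was purified on Ni-charged magnetic beads and released by SUMO protease cleavage. Yield of purified protein per well was measured with the Pierce Rapid Gold BCA kit; values below 25 ug (0.1 mg/mL) are below detection.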", "units": {"purified protein yield per well": "µg"}}
{"sequence": "QTPTRESLSRQGPYQVAYYSSLPDVPEYAGATLYFPANKGDSFGGVAIAPGFIETQENIAWWGEYLASYGFAVLTLDTNSPRDIPALRADALMAAVEIIRGENTRMGSPLRGKIDVTRMAIMGHSMGGGGTLLAANAHSDQLKAAIPFTPWLPDADFSAVAVPTLVIAGEIDRIAAAAGHAWPHFQTLPDNIPKMYLEIKGGNHFIANSVTDNEGLAPNIDVHDLVGSMS [TEP027]", "purified protein yield per well": "< 25"}
{"sequence": "DGPYDVDWIYESDGLRNGPYYLGATLYYPINTSESLASIVIVPGWGMPESSIQNWGPFFASWGIIAMTIGTNNPYDWPEERAEALLDAIETIKQENVRSDSPVYGMVDINSFAVCGYSMGGGGAQWAATIDSYLDAVVALNPALAIYDTINCTDPEFDYYCLVPEHLNHSTPVLIITGENEDANGTSATGYNHYEYTPNATDKMFFQVSNSGHEAAYGPYGANGEVGEKSMQWLKFHLFCLEFLNIIKLQRKLKMI [TEP020]", "purified protein yield per well": "< 25"}
{"sequence": "TQSGPYQVKRYREKDGLRNGPRYRGATVYYPTDARGLLASIVIVPGYISPERSIRAWGPFYASHGIVAMTIGTNRPQDAPAARRRALLDAITSLKLENHRANSPLKGRLAVTRIAVSGWSMGGGGALEAATRAPQLKAVVALCPWNPYQTFSHRVPVLFLAGQRDRLAPVSDNALRHYEKTPASTPKLLFEVRNEGHWVANTPQGGNGAIGRLALS [TEP155]", "purified protein yield per well": "< 25"}
{"sequence": "CESRRGPDPTRVSVESTAGPFAIATTTVSSGNGFGGGTIYYPTSTAEGRFGGVAIAPGFTKTQSSIAWYGPRLASQGFVVFTIDTNSGLDFPASRGDQLLAALDFLTSSSSVKSRVDANRLAVMGWSMGGGGALEAAKDRPALKAAIPLAGWNTTTEWSSVTVPTLVVACENDSTAPVASHSRPFYDSLTSAQERAFVEMAGAPHGCVTSPTTAVARWTISWLKRFVDGDTRYTQFLCPPPADSTVSTQLTSCPM [TEP177]", "purified protein yield per well": "< 25"}
{"sequence": "DEIGQAPTAANITGDGSFSTSSSAIFGQSGFGGGTAYYPNTAGKYPVVAFAPGFLSDWNALNWLGPRVASWGFVVVGVNTNTPFDFPDARGDQLLAALNWAVNSAPAAVRDKADGSRRGVSGWSMGGGGTLEALAKDTTGTVKAGVPLAPWHTNKTWSKVTEPVFIIGGQNDSVAAPASHAIPFYNSLGGPKSYLERAGADHFFPTKSNGTVSRAVVSFFKRHVSADTRFTPFLCGFSGLDVSNFRSNSC [ESM030]", "purified protein yield per well": "< 25"}
{"sequence": "MYYPTTTSVGTFGAVAIAPGYTARESSIAWLGPRLASQGFVVFTIDTITTQDQPSSRGDQLRAALSYVATESSVRTRVDGSRLAVMGHSMGGGGSLQAAKDDPSIRAVIPMTPYDLDKTWPEVVAPTLVIGAEDDTVAPVSRHAEPFYESLTQASEKAYLELRGASHFAPNVSNTTIASASIAWLKRHVDADTRYERFICPAPAVSLQISEYRSTC [TEP079]", "purified protein yield per well": "< 25"}
{"sequence": "STPVHHAAARTAVPHHAPFAVRTTVVPKTAVKAFGGGVIYTPQDTGKPVLGAVVITPGFTDTNADEKATAELVASQGFVAFAIDTLDVYDLPDQRATEMLAAADYLTGTSAVKSEVSANDVALLGYSFGGGGTMQAAQSRPSIKAAVTLMPYDFPPADQPDAQYPAYPKLTVPTLVITGQKDDVAVPADFGKPAYDSIPAGTPKQYLELKGLDHYAGHRAPTPTIRTAVTAFLKRYLDGNSAYAKFICPAPKVGGPITASISSCPKG [ESM164]", "purified protein yield per well": "< 25"}
{"sequence": "YYPTSTSDGTFGAVVVTPGFTATESSMAWLGPRLASQGFVVFTIDTLTTLDQPDSRGRQMLAALDYLTERSSARTRIDGTRLGVIGHSMGGGGTLEAAKSRPSLKAAIPLTPWNLDKTWPEVTTPTLVVGADGDTVAPVATHAKPFYSSLPSSTDRAYLELNNATHFAPN [TEP120]", "purified protein yield per well": "< 25"}
{"sequence": "AQQTILQESFNSSLGSFTSAGSVSVGSSGALMRGSAYSTDGRITSAAVSTQGLTNIVLSFTSATSGLDLGEAAIVSYSTNGSSYTTVSSERYATGSFTFNLGTAAANQSQLFLRFAIDASSTYETYAVDNIILTGDGEGGGTTCTTCIGPDPTVAALEAARGPFNTSSFGLSSWSVSGFGGGDIFYPTNAPAGPLAAIAICPGFLGTSETVDWWGPRLASHGFVVIVMDPNSVFDQPAQRATQLMACLDELEDQNNDSGSPIYGMVDSNRVGLMGHSMGGGGTLIATEDNPSVIKAAIPMAPWNMLSSNFSDITTPTLVIACEADLIAPVAQHARPFYDSIPSTVPKAFLEINNGDHLAVMNGDVFEDMLGKYGVAWMKVFLDNDQRYMQFLCGPDHESDWDISDYRSSCPY [DP024]", "purified protein yield per well": "< 25"}
{"sequence": "SGGSSPDGPRESRQDGPSSAGPSYPSAGPLEGPYEVRTQTVGPDDVGGRFRGGTVYYPADGSRDYGVIAASPGLGADQSMVQAYGALLASHGFVLITFDTKTPQDSPAQRGRQMLDALDWAAEHSAAAGRADPDRLGVMGHSMGGGAALHAASRDPRIKAAVPLTPYAGKRDWSGVTAATLVVSGSDDEVAPPSGHARAFYDGLDDAKEKAYLELKGDHFVATPPDRLVSRQTVAWFKHFVGGDKAAGEDLCPAPREERVVASRDTCPYG [TEP134]", "purified protein yield per well": "< 25"}
{"sequence": "MVSYSPRYKAVAFTVAAGLVGGGLAGLAPNRHERGPDPTRALLEAPRGPLATARTVVPRAEAAGYGGGTIYHPAEMRTGETYGAVAIIPGRNGPQSGMSWYGPRLASHGFIVFTIDALRPLDRPPARGAQLQAALQQLAVRSPVATHVDAGRLAVMGHSLGGAGALEAAKARPGLRAAIPLTPSDVAGPDFSGVRVPTLILAAEKDTVAPLGRHARKFYRAIPRGTEKAYVELAGATHGFPKLPHPTVARYTIAWLKRWVDGDRRYDRVLCPSGRREPAVSFQRDTCPHD [TEP187]", "purified protein yield per well": "< 25"}
{"sequence": "QTNPYARGPNPTRDSLEASRGPFAFSSFTVSRPSGYAGGTVYYPTNAGGTVGAIAVVPGFSARQSSINWWGPRLASHGFVVITIDTNSSFDQPPSRSRQQLAALDQVATLARTSGSPIYNKVDTTRMGVMGSSMGGGGSMISAQNRPSLKAAIPQSPSVSSTNFSSVVVPTLIFACENDTVPPGGSQAVAIYNSMMLNPKQLLEIAGGSPFCGNSN [ESM182]", "purified protein yield per well": "< 25"}
{"sequence": "MKSSGSAFRDPSGTVPTGRPAGRSWRYALALVAATTTLVALTVAGGTQQATGADNPYQRGPDPTRASVSANRGTFATAQVSVPAGNGFGGGVIYYPTDTSQGRFGAIAVVPGYTATWAAEGAWMGHWLASFGFVVIGIDTNSRNDWDNARGTQLLAALDYLTQRSSVRDRVDASRTSVMGHSMGGGGAANASLQRPTLKTAIGLAPASFSQNLTTTKVPTMLLAGQYDGTVTPSSVLNLYNGIPAGVEKAYLELTGAGHGFPTSNNPTMMRTIIPWFKIFVDSDTRYTQFLCPLADTNGIRTYQSTCPLVPSTPPTSTSTTTTTTGVPTGSTYVGQQSGRCLDVTGQSQTNGAKAQLWDCNGQSNQKWTLTSAAELRVYGGKCLDLPSNSAAGTQAQIWDCNGQSNQKWTHGTDGSIRHTQTGLCLDANGQGTANGTQVNSWNCNGQTNQKWTRR [TEP008]", "purified protein yield per well": "< 25"}
{"sequence": "DPTAFAVHGPDPTAQSVQAQRGPYATSRTTVSSGTGFNRGTIYYPTTTSEGTFSAVAVIPGFTESESTMSWYGTTLSSHGFVVFTLEAEGGLDFPDARADQLLAALDYLVNSSSVRDRVDRNRLGVMGHSMGGGGTLEAANERPSLRAAIPLAAWHNTKNFPQVQAATLVISAEGDSVASPASHSEPFYQGLRSAEKAYLELNNGNHFTTNSYTPTVTKYAVSWLKRFLDDDTRYSQFLCPPPPPDSNINEYRHTCPV [DP055]", "purified protein yield per well": "< 25"}
{"sequence": "GFGGGMIYYPTDTSQGTFGGIAISPGYTAQFSVELSWMGPWLASHGFVVIGIETNSPTDFDQARGTQLLAALDYLTQQSPVRTRVDASRLAVAGHSMGGGGALNAAIRRPSLKATVGITPFLPSSNLANDHVPTMLIAGQADTVVSTSSVINQYNSLPATTKSVFLEVAGGDHGFMVGRPNTVMVRTMLPFLKIFVDNDSRYSKFLCPLMDSSGITQYRST [ESM170]", "purified protein yield per well": "< 25"}
{"sequence": "MREHEDAMSGGRMPSGARPPRLIGLAVAAIAAVVTMIAAMLAVGPVSAQPAPTAVTPHSTQRGPDPTLAMIEASRGPFATAQQGVAPGNGFNGGEIYYPTDTSQGTWGALVIIPGYTARCVNQPAPEEAWMGPWLSSFGFVVLCMETNSPNDFDTARGQEALAALNWLTTASPVRGEVDPNRLSVMGHSMGGGGVVYAVEHQPSLRAGIGLAPFSPSQNMAGDKVPTLILGGQNDSTVTPSYLSGLYATMPAATQSAFAQIAGAGHGFYTSPNNVMMKLAIPWLKVFVDSDNRYEQFLCPTLPDPSQISIYRSKCPYVPPGGGPTSTTTTPPPPAGACQAVYQPQNSWPGGFQGLVTVTAGSSPVSGWTVTWALSGGQAITQLWSGNLTTSGSAVTVKNASYNGSLAAGASATFGFTATGAASTPTLTCTSP [ESM146]", "purified protein yield per well": "< 25"}
{"sequence": "QDNPYERGPDPTESLIEASRGPFSVSQTSVSSLVSGFGGGTIYYPTSTSEGTFGAVAISPGFTATESSIAWMGPRLASHGFVVITIDTNTIYDQPSSRGDQLLAALDYMTEDNLTVRGRIDSSRLAVAGHSMGGGGSLEAASSRPALQAAVPLAPWNTDKSWSELRTPTLIIGGESDSIAPVATHSIPFYNSIPASAEKAYLELDNASHFFPQTPNTTQAKYMLSWLKRFVDNDTRYEQFLCPAPDDRDISDYRDTCPHA [TEP150]", "purified protein yield per well": "< 25"}
{"sequence": "FSFTPPPEPNPDPDPTPPCEVDCDFTRGPDPSSSYLEAASGPYSVNTINVSSSVSGFGGGTVYYPTGTSGLMGAISIAPGFFAAESSIGWWGPRLASHGFVVITIATNSIFDGTDSRATQLDRALDYVINQSNSGSSAISGMVDSNRVGAMGWSMGGGGSLILGSGTRLSAVIPLAPWESGSNNFDQMTAPTLIIACENDGTAPVASHASPFYNTIPGTTDKAFLEINGGGHSCANGGGVNG [ESM098]", "purified protein yield per well": "< 25"}
{"sequence": "DEIGQAPTSSNITGNGSFSVSTYNISSLVSGFGGGVAYYPTTSGRYPVVAVSPGFTARWSSISWIGPRLASWGFVVVGIETNGLYDQPASRGSQLLAALNWAVNSAPSAITSRADGSRRGVAGHSMGGGGTLEALAADTTGNVKAGVPIAPWNSDKTWSGINEAVQIVGGESDTIASVGSHSIPFYNSVSGPKSYVELNGASHFFPQSTNSTLSRALVSWFKRYLNQDARFTPFTCGYGGTAVSDFRTNAC [ESM151]", "purified protein yield per well": "< 25"}
{"sequence": "QQTGPDPTSASLNATAGPFAVSTATVTSPVGFGGGTIYYPTIAGQYGVVALSPGFTATQSSVAWLGRRIATHGFVVVTINTNSTLDQPASRANQLIAALNYVANSASTTVRSRVDASRRAVGGHSMGGGGSLIAAQNNPSLKAILPLTPWNLSTNFSGVQVPTLIVGADGDAVAPVASHARPFYASLPSTVRKAYGELNMASHSTPTSGVNTPIGRYGVTWMKRFVDGDTRYSTFLCGAEHQAYATATVFDRYSQNCPY [ESM127]", "purified protein yield per well": "< 25"}
